Experimental findings from doi:10.1101/2021.10.18.464838, “Two distinct classes of co-chaperones compete for the EEVD motif in heat shock protein 70 (Hsp70) to tune its activity” (bioRxiv, 2021) are described below.

Sequences and labels used below:
B4: Hsp72 phosphomimetic T636E tracer FITC-Ahx-GSGPEIEEVD (peptide)
peptide: GSGPEIEEVD-OH
modifications: not fully specified (N-terminus); printed as FITC-Ahx-GSGPEIEEVD
notes: last 10 residues of Hsp72/HSPA1A with the P6 Thr changed to Glu; also called T636E Hsp72 fluorescent tracer; P6 Thr to Glu; source: synthetic peptide, bought: GenScript

Common to all, as to conditions: both partners purified
In assay [1] the target is T1, DnaJB4 (recombinant, human, full length, wild type) (human, UniProt Q9UDY4 1-337).
T1 construct: DnaJB4, human, full length; Expressed from pMCSG7 with a TEV site; also called WT DnaJB4; Class B JDP; source: E. coli BL21 (DE3) Rosetta, purified (Ni-NTA, TEV cleavage, SEC); not shown: His6, N-terminal, cleaved
Briefly: fluorescence polarisation; saturation binding: 20 nM Hsp72 tracer with DnaJB4 (WT or QPD) 110 to 0.013 µM in 2X dilutions; 50 mM Tris, 15 mM NaCl, 1 mM DTT, 0.01% Triton X-100, pH 8.0; room temperature, 30 min. A general note: In fluorescence polarisation assays a small probe gives low polarisation when free and higher when bound to something large.

The target in assay [2] is B4. Briefly: fluorescence polarisation; saturation binding: 20 nM Hsp72 tracer with CHIP 110 to 0.013 µM in 2X dilutions; 50 mM HEPES, 50 mM KCl, 0.01% Triton X-100, pH 7.4; room temperature, 30 min.
The target of assay [3] is T1, DnaJB4 (recombinant, human, full …). Briefly: fluorescence polarisation; competition: 100 µM unlabeled peptide, 5 µM DnaJB4, 20 nM Hsp72 tracer in JDP binding buffer; room temperature, 30 min; tracer displacement relative to DMSO control.

Several values for one entry are separate records, joined by “and”; a condition that tells them apart may be missing. Equal entries are not always repeated. Where no end group is shown, it is not given here. The star is where a group is joined. FITC = O=C1OC2(c3ccc(O)cc3Oc3cc(O)ccc32)c2ccc(NC(=S)*)cc21; Ahx = NCCCCCC(=O)O

T1 sequence (Q9UDY4 whole entry): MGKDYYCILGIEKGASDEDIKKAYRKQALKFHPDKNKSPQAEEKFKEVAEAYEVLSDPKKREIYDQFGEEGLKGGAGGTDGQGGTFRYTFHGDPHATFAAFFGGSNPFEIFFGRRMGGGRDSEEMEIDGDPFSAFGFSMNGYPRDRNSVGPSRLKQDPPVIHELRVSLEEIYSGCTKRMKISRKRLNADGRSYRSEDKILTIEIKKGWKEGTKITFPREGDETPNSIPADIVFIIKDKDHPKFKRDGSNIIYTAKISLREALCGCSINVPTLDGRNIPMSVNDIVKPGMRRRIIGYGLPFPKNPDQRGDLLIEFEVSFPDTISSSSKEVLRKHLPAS

B1: Hsp72 tracer FITC-Ahx-GSGPTIEEVD (peptide)
peptide: {FITC-Ahx}-GSGPTIEEVD-OH
modifications: not fully specified; printed as FITC-Ahx-GSGPTIEEVD
notes: last 10 residues of Hsp72/HSPA1A; also called EEVD tracer; fluorescent Hsp72 peptide; source: synthetic peptide, bought: GenScript
For B1, the Kd – broadly, a measure of binding affinity in units of concentration – in assay [1] was 1910 nM and 1690 nM.

B2: CHIP (recombinant human) (natural protein, UniProt Q9UNE7 1-303, looked up)
chain: MKGKEEKEGGARLGAGGGSPEKSPSAQELKEQGNRLFVGRKYPEAAACYGRAITRNPLVAVYYTNRALCYLKMQQHEQALADCRRALELDGQSVKAHFFLGQCQLEMESYDEAIANLQRAYSLAKEQRLNFGDDIPSALRIAKKKRWNSIEERRIHQESELHSYLSRLIAAERERELEECQRNHEGDEDDSHVRAQQACIEAKHDKYMADMDELFSQVDEKRKKRDIPDYLCGKISFELMREPCITPSGITYDRKDIEEHLQRVGHFDPVTRSPLTQEQLIPNLAMKEVIDAFISENGWVEDY
notes: CHIP, human; also called E3 ubiquitin ligase CHIP; TPR domain co-chaperone; source: E. coli BL21(DE3), purified (Ni-NTA, TEV cleavage, SEC); not shown: His6, N-terminal, cleaved
As to B2, the “fold weakening of the affinity against the WT tracer” value in assay [2] was 5 fold.

B3: Hsp72 C-terminal 7-mer peptide PTIEEVD (peptide)
peptide: Ac-PTIEEVD-OH
notes: last 7 residues of Hsp72/HSPA1A; also called last 7 amino acids of Hsp70's C-terminus; source: synthetic peptide, bought: GenScript
As to B3, the binding result in assay [3] is recorded as “binds”.
As to B4, the binding result in assay [1] is listed as “binds”.

B5: Hsp72 10-mer peptide with the P5 Ile replaced by Met (peptide, UniProt P0DMV8 632-641, looked up)
peptide: Ac-GSGPTMEEVD-OH
notes: also called P5 Ile to Met mutant; source: synthetic peptide, bought: GenScript
For the molecule B5, the binding result in assay [3] is given as “binds”.
